Source: paper PMC8125234, “Cardiolipin Stabilizes and Increases Catalytic Efficiency of Carnitine Palmitoyltransferase II and Its Variants S113L, P50H, and Y479F” (International Journal of Molecular Sciences, 2021)

B1: CPT II variant P50H (Homo sapiens; P50H) (protein)
chain: SAGSGPGQYLQRSIVPTMHYQDSLHRLPIPKLEDTIRRYLSAQKPLLNDGQFRKTEQFCKSFENGIGKELHEQLVALDKQNKHTSYISGPWFDMYLSARDSVVLNFNPFMAFNPDPKSEYNDQLTRATNMTVSAIRFLKTLRAGLLEPEVFHLNPAKSDTITFKRLIRFVPSSLSWYGAYLVNAYPLDMSQYFRLFNSTRLPKPSRDELFTDDKARHLLVLRKGNFYIFDVLDQDGNIVSPSEIQAHLKYILSDSSPAPEFPLAYLTSENRDIWAELRQKLMSSGNEESLRKVDSAVFCLCLDDFPIKDLVHLSHNMLHGDGTNRWFDKSFNLIIAKDGSTAVHFEHSWGDGVAVLRFFNEVFKDSTQTPAVTPQSQPATTDSTVTVQKLNFELTDALKTGITAAKEKFDATMKTLTIDCVQFQRGGKEFLKKQKLSPDAVAQLAFQMAFLRQYGQTVATYESCSTAAFKHGRTETIRPASVYTKRCSEAFVREPSRHSAGELQQMMVECSKYHGQLTKEAAMGQGFDRHLFALRHLAAAKGIILPELYLDPAYGQINHNVLSTSTLSSPAVNLGGFAPVVSDGFGVGYAVHDNWIGCNVSSYPGRNAREFLQCVEKALEDMFDALEGKSIKS
notes: made in house; host or cells: Escherichia coli BL21Gold DE

Columns and labels:
CPT II WT = system: CPT II WT; set-up: method as in PMID 26477380; settings: cited from earlier work
CPT II S113L = system: CPT II S113L; set-up: method as in PMID 27123472; settings: in vitro; cited from earlier work
[1] = Thermosensitivity of enzyme activity of recombinant CPT II enzymes (activity half-life after incubation); assay type: physicochemical; settings: 30 °C; 1 mg/mL enzyme
Procedure: To evaluate the enzyme behavior under different temperature conditions that are relevant under physiological conditions, we chose 30 (cold), 37 (normal), 40 (moderate fever) and 42 °C (high fever) for the experiments. The enzyme variants were expressed recombinantly in E. coli, carried a N-terminal histidine-tag and were purified by standard chromatography in the presence of a detergent (for experimental details, see Section 4.1 and Section 4.2). The impact of temperature was investigated by incubating purified CPT II variants at appropriate temperatures and determining their enzymatic activity after defined incubation periods. The enzyme assay was based on an adaptation of Rufer et al. for the transfer reaction of the palmitic acid from palmitoyl-CoA to L-carnitine (see Section 4.3).
Before activity measurements, the storage buffer of the enzymes was replaced with assay buffer (50 mM KH2PO4, 120 mM KCl, 1 mM EDTA-Na4) using vivaspin turbo 4 tubes (Satorius Stedim biotech GmbH, Göttingen, Germany) at 4 °C. […] After that, the protein concentration was determined using bicinchoninic acid (BCA) protein assay kit (Thermo Fisher Scientific GmbH, Berlin, Germany). […] The reverse reaction of CPT II was detected with the enzyme activity assay. […] The released CoA was then detected by the reaction of the free thiol group with DTNB, forming 5-mercapto-(2-nitrobenzoic acid). […]

[2] = nanoDSF thermostability of recombinant CPT II enzymes in assay buffer; assay type: physicochemical; settings: assay buffer; 1 mg/mL protein; nanoDSF
Procedure: The protein stability was investigated applying nano differential scanning fluorimetry (nanoDSF) using a protein concentration of 1 mg/mL in assay buffer. […] The heating rate has been set to 1 °C per min. A heating ramp from 15 to 95 °C was determined. The nanoDSF data were obtained using a Prometheus NT.48 device. First derivatives were calculated using PR.ThermControl software (NanoTemper Technologies GmbH, Munich, Germany). Experiments were performed at least three times independently as double determination.

[3] = Onset of aggregation by scattered light back reflection during heating ramp; assay type: physicochemical; settings: assay buffer; heating ramp 15 °C to 80 °C
Procedure: Supplementary materials can be found at https://www.mdpi.com/article/10.3390/ijms22094831/s1, Figure S1: Scattered light back reflection as measure for aggregation during the heating ramp from 15 °C to 80 °C of CPT II WT (black) and the variants P50H (red), S113L (blue) and Y479F (green) in assay buffer (magenta). The light scattering data were obtained simultaneously with nanoDSF data using the back reflection technology in a Prometheus NT.48 device. The unfolding of proteins leads to display of hydrophobic regions of the protein on the surface, which is followed by hydrophobic interaction of the protein molecules resulting in aggregation events. These aggregates are then detected via light scattering. […] The data allow the detection of onset of aggregation (Tagg) which differs clearly among the variants. The Tagg for WT is 38 °C, Y479F is 37 °C, S113L is 35 °C and P50H is 32 °C. […] Figure S2: The first derivatives of the transition curves of WT and the variants resulting from the ratio 350/330 nm were plotted against the temperature. The black, red, blue and green solid lines show the curves of WT and variants P50H, S113L and Y479F measured in assay buffer, respectively. The black, red, blue and green dashed lines show the maxima of the values of the first derivatives of the ratio 350 nm/330 nm of WT and variants P50H, S113L and Y479F, respectively. Figure S3: The effect of amino acid exchange in absence and presence of n-octyl-β-d-glucopyranoside (β-OG) on the stability of CPT II (1 mg/mL) assessed by nanoDSF. The TM of WT (37 °C) in buffer was used as reference value (ΔTM = 0 °C) to determine the ΔTM for the variants and the ΔTM for WT and variants in presence of β- OG. Error bars are SD derived from three independent experiments. Table S1. Comparison of the mean values of the half-lives (t1/2) of CPT II WT and the variants at 30 °C with the half-lives at 37, 40 or 42 °C. The differences of the half-lives for each CPT II enzyme between 37 and 40 or 42 °C as well as 40 and 42 °C are not significant. Number of experiments for each variant (n ≥ 3). Table S2. Comparison of the mean values of the half-lives (t1/2) between CPT II WT and the variants Y479F, S113L and P50H at 30, 37, 40 or 42 °C. n ≥ 3. Table S3. […] Comparison of the ∆TM-values of CPT II WT and the variants Y479F, S113L and P50H in buffer or in presence of 0.25 mM cardiolipin or 1% n-octyl-β-d-glucopyranoside (β-OG) assessed by nanoDSF (n ≥ 3). […] Comparison of the transition temperatures (TM) of WT and the variants Y479F, S113L and P50H in buffer with of 0.25 mM cardiolipin or 1% n-octyl-β-d-glucopyranoside (β-OG) assessed by nanoDSF (n ≥ 3). […]

[4] = substrate: C[N+](C)(C)C[C@H](O)CC(=O)[O-]; experiment: Determination of the kinetic parameters kcat and KM; assay type: biochemical, human; settings: other: P50H, L-carnitine varied, absence of CL, 25 °C
Procedure: Before activity measurements, the storage buffer of the enzymes was replaced with assay buffer (50 mM KH2PO4, 120 mM KCl, 1 mM EDTA-Na4) using vivaspin turbo 4 tubes (Satorius Stedim biotech GmbH, Göttingen, Germany) at 4 °C. The pH of assay buffer was adjusted with KOH to 7.4. The storage buffer was diluted at least 1:500 in assay buffer. In addition, before each experimental set up, the protein samples were centrifuged at 16,000× g for 5 min at 4 °C to remove any micro-aggregates. After that, the protein concentration was determined using bicinchoninic acid (BCA) protein assay kit (Thermo Fisher Scientific GmbH, Berlin, Germany). The enzyme activity of recombinant CPT II was performed following Rufer et al. with modifications described elsewhere. […] After pre-conditioning the mixture to 25 °C for 2 min, the reaction was started by adding 15 nM of recombinant enzyme. The reverse reaction of CPT II was detected with the enzyme activity assay. CPT II catalyzed the transfer of fatty acid residue from Pal-CoA to L-carnitine with release of CoA and Pal-carnitine. The released CoA was then detected by the reaction of the free thiol group with DTNB, forming 5-mercapto-(2-nitrobenzoic acid). This compound has a molar extinction coefficient of 13,600 M^−1 cm^−1 at a wavelength of 410 nm, and its formation was followed spectroscopically. […] The slope of the progress curve was used to determine the reaction velocity.
It is assumed that the reaction catalyzed by CPT II represents a ping-pong mechanism or compulsory order ternary-complex mechanism.
The kinetic parameters were determined by evaluating the obtained v/S characteristic according to the Michaelis–Menten Equation (1). The […] kcat was calculated using Equation (2):(1) v=Vmax∗[S]/KM+[S] (2) kcat=Vmax/cenzyme

Row | Molecule | Inhibition by malonyl-CoA (CPT II WT) | Inhibition by malonyl-CoA (CPT II S113L) | Time to complete loss of activity [1] | TM in Buffer [2] | Onset of aggregation (Tagg) [3] | Km [4] | kcat [4] | kcat/Km [4]
1 | CC(C)(COP(=O)(O)OP(=O)(O)OC[C@H]1O[C@@H](n2cnc3c(N)ncnc32)[C@H](O)[C@@H]1OP(=O)(O)O)[C@@H](O)C(=O)NCCC(=O)NCCSC(=O)CC(=O)O [malonyl-CoA, Malonyl-CoA] | not inhibited | abnormal enzyme inhibition | – | – | – | – | – | –
2 | B1 | – | – | ≤ 25 min | 26.2 ± 0.3 °C | 32 °C | 12.8 ± 2.7 mM | 138 ± 4.9 s⁻¹ | 10800 ± 2600 M⁻¹ s⁻¹
